# Patent US20050227296A1, “Method for indentifying integrin antagonists” (The General Hospital Corporation, a Massachusetts …, priority 1988, published 2005)
# Legend:
# [1] = target: recombinant Ancylostoma caninum neutrophil adhesion inhibitor (NIF) (Ancylostoma caninum); experiment: competition: fluid-phase r11bA against biotinylated rNIF binding to human neutrophils, FACS
# [2] = target: complement iC3b on erythrocytes (EAiC3b) (human) (UniProt P01024); experiment: fluid-phase rA-domain against EAiC3b binding to immobilized rA-domain
# [3] = target: recombinant Ancylostoma caninum neutrophil adhesion inhibitor (NIF) (Ancylostoma caninum); experiment: competition: fluid-phase r11bA against biotinylated rNIF binding to immobilized r11bA, plate assay
# [4] = target: CD11b/CD18 on human neutrophils (human) (UniProt P05107); experiment: Scatchard plot, biotinylated rNIF on resting or activated neutrophils at 4 C, FACS
# [5] = target: recombinant CD11b A domain (human) (UniProt P11215); experiment: Scatchard analysis of biotinylated rNIF binding to immobilized rA-domain
# [6] = target: CD11b/CD18 on human neutrophils (human) (UniProt P05107); experiment: time course of biotinylated NIF binding to neutrophils at 4 C, FACS
# [7] = target: CD11b/CD18 on human neutrophils (human) (UniProt P05107); experiment: dissociation of biotinylated rNIF from washed neutrophils at 4 C, FACS
# [8] = target: recombinant human CD11b/CD18 expressed in COS cells (human) (UniProt P05107); experiment: rNIF against EAiC3b binding to recombinant CD11b/CD18 on COS cells, fluorescence
# [9] = target: CD11b/CD18 on human neutrophils (human) (UniProt P05107); experiment: biotinylated rNIF on f-met-leu-phe activated against resting neutrophils, FACS
# Sequence of complement iC3b on erythrocytes (EAiC3b) (human) (P01024 23-667 limits assumed, chain 1 of 3): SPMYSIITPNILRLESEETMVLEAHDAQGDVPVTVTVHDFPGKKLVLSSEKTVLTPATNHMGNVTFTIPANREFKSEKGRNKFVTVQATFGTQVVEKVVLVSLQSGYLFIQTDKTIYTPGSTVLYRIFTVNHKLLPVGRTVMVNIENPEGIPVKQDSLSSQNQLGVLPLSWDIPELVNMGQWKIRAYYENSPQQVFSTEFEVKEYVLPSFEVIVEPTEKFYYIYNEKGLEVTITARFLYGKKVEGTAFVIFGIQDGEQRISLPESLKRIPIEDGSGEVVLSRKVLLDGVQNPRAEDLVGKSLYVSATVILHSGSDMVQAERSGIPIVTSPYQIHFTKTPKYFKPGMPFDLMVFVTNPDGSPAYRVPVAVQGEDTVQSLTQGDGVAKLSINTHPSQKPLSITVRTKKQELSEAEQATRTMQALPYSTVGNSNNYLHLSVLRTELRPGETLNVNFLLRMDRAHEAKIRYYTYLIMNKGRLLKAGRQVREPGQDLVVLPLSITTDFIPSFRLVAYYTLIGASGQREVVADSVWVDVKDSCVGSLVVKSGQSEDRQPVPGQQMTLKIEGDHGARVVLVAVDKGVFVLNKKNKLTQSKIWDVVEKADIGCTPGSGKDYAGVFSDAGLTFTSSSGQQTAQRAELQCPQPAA
# Sequence of complement iC3b on erythrocytes (EAiC3b) (human) (P01024 749-1303 limits assumed, chain 2 of 3): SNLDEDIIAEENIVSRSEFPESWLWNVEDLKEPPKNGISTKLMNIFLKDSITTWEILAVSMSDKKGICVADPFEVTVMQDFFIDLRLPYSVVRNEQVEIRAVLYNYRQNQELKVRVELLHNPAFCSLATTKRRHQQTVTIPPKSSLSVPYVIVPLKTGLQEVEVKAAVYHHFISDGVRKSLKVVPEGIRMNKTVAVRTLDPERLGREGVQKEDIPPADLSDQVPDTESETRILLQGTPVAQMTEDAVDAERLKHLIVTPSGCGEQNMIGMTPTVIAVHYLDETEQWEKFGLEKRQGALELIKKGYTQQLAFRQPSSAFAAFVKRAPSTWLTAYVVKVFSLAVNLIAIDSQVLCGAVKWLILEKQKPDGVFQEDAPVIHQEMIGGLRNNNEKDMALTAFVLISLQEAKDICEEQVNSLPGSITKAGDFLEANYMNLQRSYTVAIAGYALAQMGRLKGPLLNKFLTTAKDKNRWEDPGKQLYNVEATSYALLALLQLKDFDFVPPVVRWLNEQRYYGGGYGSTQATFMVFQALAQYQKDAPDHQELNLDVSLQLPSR
# Sequence of complement iC3b on erythrocytes (EAiC3b) (human) (P01024 1321-1663 limits assumed, chain 3 of 3): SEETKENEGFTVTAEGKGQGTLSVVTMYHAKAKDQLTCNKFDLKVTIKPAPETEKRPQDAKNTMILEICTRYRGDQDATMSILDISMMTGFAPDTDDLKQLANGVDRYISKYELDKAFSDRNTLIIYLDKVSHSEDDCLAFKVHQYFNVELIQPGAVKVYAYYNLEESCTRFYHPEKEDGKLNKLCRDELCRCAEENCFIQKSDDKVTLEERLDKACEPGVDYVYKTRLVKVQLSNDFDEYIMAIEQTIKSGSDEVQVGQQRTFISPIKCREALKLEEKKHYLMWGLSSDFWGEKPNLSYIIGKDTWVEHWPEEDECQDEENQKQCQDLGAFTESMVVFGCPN
Substance,IC50 [1],IC50 [2],IC50 [3],Kd [4],Kd [5],t1/2 of association [6],t1/2 of dissociation [7],IC50 [8],concentration for complete inhibition [8],fold increase in NIF binding to activated vs resting cells [9]
recombinant CD11b A domain (from UniProt P11215 144-337) (receptor),0.001 µM,1000 µM,0.001 µM,–,–,–,–,–,–,–
recombinant Ancylostoma caninum neutrophil adhesion inhibitor (NIF) (ligand),–,–,–,0.00035 to 0.0013 µM,0.001 µM,0.25 h,7.6 h,0.005 µM,3 mg/mL,12 fold
